Reference: publication PMC8305194, “Structural, Mechanistic, and Functional Insights into an Arthrobacter nicotinovorans Molybdenum Hydroxylase Involved in Nicotine Degradation” (Molecules, 2021)

Columns and labels:
[1] = biological target: T1, Kdh holoenzyme (KdhL, KdhM, KdhS); 6-hydroxypseudooxynicotine 2-oxidoreductase; ketone dehydrogenase (Paenarthrobacter nicotinovorans, UniProt Q933N0); test: X-ray crystal structure, […] Å; format: binding; settings: co-purified cofactor, MCD site in KdhL
T1 construct: gene kdhC; kdhLMS co-expressed from pART2-kdhLMS in A. nicotinovorans pAO1; Ni-NTA (tag not described) and Superdex 200; KdhL 87 kDa, KdhM 287 residues, KdhS 160 residues; heterotrimer, dimer of heterotrimers in crystal; with 6-hydroxypseudooxynicotine dehydrogenase complex subunit alpha; 6-hydroxypseudooxynicotine dehydrogenase complex subunit beta
T1 sequence (Q933N0 1-794): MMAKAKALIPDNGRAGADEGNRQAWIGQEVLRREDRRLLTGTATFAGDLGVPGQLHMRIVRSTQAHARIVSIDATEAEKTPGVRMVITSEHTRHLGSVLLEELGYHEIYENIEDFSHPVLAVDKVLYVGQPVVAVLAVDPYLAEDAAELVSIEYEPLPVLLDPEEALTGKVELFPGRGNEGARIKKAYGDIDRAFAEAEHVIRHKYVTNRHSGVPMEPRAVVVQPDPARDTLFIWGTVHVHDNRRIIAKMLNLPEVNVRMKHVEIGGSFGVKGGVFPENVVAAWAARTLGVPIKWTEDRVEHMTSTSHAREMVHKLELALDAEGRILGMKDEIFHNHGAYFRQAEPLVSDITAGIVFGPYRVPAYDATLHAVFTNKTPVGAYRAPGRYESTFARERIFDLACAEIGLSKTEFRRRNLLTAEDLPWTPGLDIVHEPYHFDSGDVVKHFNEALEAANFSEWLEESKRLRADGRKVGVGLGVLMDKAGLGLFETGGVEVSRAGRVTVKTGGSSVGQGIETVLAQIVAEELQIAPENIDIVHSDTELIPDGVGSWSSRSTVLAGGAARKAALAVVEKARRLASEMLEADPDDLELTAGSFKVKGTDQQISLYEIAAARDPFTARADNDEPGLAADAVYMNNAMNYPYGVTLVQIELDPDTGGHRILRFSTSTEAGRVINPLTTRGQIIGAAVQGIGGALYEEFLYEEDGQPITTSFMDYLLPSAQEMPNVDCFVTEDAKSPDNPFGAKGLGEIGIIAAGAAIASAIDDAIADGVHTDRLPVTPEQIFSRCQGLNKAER
T1 sequence (O87681 1-296 partner): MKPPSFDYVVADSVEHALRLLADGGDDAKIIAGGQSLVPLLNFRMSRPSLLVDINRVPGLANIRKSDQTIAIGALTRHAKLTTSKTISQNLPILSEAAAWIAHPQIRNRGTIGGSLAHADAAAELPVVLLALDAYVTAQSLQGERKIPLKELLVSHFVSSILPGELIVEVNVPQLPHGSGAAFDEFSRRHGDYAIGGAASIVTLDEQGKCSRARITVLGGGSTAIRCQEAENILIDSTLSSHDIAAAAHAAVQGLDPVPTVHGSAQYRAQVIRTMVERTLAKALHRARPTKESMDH
T1 sequence (O87682 2-160 partner): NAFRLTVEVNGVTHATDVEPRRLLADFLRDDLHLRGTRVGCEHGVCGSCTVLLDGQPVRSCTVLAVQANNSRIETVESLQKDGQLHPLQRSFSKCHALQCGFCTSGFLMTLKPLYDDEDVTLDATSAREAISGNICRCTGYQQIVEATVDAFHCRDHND

[2] = biological target: T2, Kdh holoenzyme, FAD site in KdhM (Paenarthrobacter nicotinovorans, UniProt O87681); test: X-ray crystal structure, […] Å; format: binding; settings: co-purified cofactor
T2 construct: gene kdhA; same holoenzyme as P1; KdhM 287 residues, 32 kDa, holds FAD; with 6-hydroxypseudooxynicotine dehydrogenase complex subunit gamma; 6-hydroxypseudooxynicotine dehydrogenase complex subunit beta
T2 sequence (O87681 1-296): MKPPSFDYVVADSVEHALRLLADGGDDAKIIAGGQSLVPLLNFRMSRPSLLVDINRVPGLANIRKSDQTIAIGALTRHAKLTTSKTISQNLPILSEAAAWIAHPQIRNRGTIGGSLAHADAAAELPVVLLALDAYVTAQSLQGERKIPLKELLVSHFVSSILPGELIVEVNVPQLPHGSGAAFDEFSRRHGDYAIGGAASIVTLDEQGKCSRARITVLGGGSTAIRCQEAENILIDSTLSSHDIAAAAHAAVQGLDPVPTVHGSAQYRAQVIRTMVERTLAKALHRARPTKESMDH
T2 sequence (Q933N0 1-794 partner): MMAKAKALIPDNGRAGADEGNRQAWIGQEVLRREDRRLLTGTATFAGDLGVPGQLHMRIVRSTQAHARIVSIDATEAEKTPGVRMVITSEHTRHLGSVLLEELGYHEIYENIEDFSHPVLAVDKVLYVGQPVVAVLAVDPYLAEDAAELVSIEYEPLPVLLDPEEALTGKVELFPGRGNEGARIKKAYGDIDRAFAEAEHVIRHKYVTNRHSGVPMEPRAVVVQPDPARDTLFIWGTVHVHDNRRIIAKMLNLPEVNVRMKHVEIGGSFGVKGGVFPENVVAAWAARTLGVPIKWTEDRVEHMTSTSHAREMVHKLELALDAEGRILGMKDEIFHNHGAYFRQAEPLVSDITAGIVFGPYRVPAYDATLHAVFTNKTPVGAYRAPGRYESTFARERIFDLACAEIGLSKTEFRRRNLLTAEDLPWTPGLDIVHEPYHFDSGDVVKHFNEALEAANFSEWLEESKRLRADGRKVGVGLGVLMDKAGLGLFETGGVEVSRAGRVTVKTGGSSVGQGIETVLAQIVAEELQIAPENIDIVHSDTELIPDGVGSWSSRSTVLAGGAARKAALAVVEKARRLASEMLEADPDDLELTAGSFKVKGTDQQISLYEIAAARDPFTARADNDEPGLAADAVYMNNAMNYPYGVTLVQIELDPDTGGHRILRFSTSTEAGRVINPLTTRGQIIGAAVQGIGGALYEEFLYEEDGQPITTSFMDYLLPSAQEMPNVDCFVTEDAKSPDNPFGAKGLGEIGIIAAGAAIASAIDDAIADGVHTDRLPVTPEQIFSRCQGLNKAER
T2 sequence (O87682 2-160 partner): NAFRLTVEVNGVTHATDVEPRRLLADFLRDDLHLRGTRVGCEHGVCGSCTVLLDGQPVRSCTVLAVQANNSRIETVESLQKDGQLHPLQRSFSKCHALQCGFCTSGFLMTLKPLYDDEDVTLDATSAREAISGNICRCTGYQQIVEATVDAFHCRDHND

purified protein = substrate: CNCCCC(=O)c1ccc(O)nc1; test: purified protein; format: biochemical, Paenarthrobacter nicotinovorans; settings: 500 μM PMS, 50 μM DCIP, aerobic, 30 °C, pH 8.0, Tris-HCl per Table 2 (Table 3 lists the same value under PBS pH 8.0)

Nc1ccn([C@@H]2O[C@H](COP(=O)(O)OP(=O)(O)OC[C@H]3O[C@H]4Nc5nc(N)[nH]c(=O)c5N[C@H]4C(S)=C3S)[C@@H](O)[C@H]2O)c(=O)n1 [MCD]
X-ray crystal structure, 3.4 Å [1]: the MCD cofactor is at the center of their intersection

Cc1cc2nc3c(=O)[nH]c(=O)nc-3n(C[C@H](O)[C@H](O)[C@H](O)COP(=O)(O)OP(=O)(O)OC[C@H]3O[C@@H](n4cnc5c(N)ncnc54)[C@H](O)[C@@H]3O)c2cc1C [FAD]
X-ray crystal structure, 3.4 Å [2]: the KdhM-bound FAD cofactor is relatively less restricted from the exterior

B1: Kdh holoenzyme (KdhL, KdhM, KdhS); 6-hydroxypseudooxynicotine 2-oxidoreductase; ketone dehydrogenase (Paenarthrobacter nicotinovorans) (protein)
chain: MMAKAKALIPDNGRAGADEGNRQAWIGQEVLRREDRRLLTGTATFAGDLGVPGQLHMRIVRSTQAHARIVSIDATEAEKTPGVRMVITSEHTRHLGSVLLEELGYHEIYENIEDFSHPVLAVDKVLYVGQPVVAVLAVDPYLAEDAAELVSIEYEPLPVLLDPEEALTGKVELFPGRGNEGARIKKAYGDIDRAFAEAEHVIRHKYVTNRHSGVPMEPRAVVVQPDPARDTLFIWGTVHVHDNRRIIAKMLNLPEVNVRMKHVEIGGSFGVKGGVFPENVVAAWAARTLGVPIKWTEDRVEHMTSTSHAREMVHKLELALDAEGRILGMKDEIFHNHGAYFRQAEPLVSDITAGIVFGPYRVPAYDATLHAVFTNKTPVGAYRAPGRYESTFARERIFDLACAEIGLSKTEFRRRNLLTAEDLPWTPGLDIVHEPYHFDSGDVVKHFNEALEAANFSEWLEESKRLRADGRKVGVGLGVLMDKAGLGLFETGGVEVSRAGRVTVKTGGSSVGQGIETVLAQIVAEELQIAPENIDIVHSDTELIPDGVGSWSSRSTVLAGGAARKAALAVVEKARRLASEMLEADPDDLELTAGSFKVKGTDQQISLYEIAAARDPFTARADNDEPGLAADAVYMNNAMNYPYGVTLVQIELDPDTGGHRILRFSTSTEAGRVINPLTTRGQIIGAAVQGIGGALYEEFLYEEDGQPITTSFMDYLLPSAQEMPNVDCFVTEDAKSPDNPFGAKGLGEIGIIAAGAAIASAIDDAIADGVHTDRLPVTPEQIFSRCQGLNKAER
notes: kdhLMS co-expressed from pART2-kdhLMS in A. nicotinovorans pAO1; Ni-NTA (tag not described) and Superdex 200; KdhL 87 kDa, KdhM 287 residues, KdhS 160 residues; heterotrimer, dimer of heterotrimers in crystal; with 6-hydroxypseudooxynicotine dehydrogenase complex subunit alpha; 6-hydroxypseudooxynicotine dehydrogenase complex subunit beta
Km (purified protein): 12.5 ± 0.9 µM | kcat (purified protein): 9.03 ± 0.12 s⁻¹ | kcat/Km (purified protein): 720000 ± 130000 M⁻¹ s⁻¹
